B1: Retinoic acid receptor RXR-gamma (Homo sapiens), P48443 (parent)
chain: MYGNYSHFMKFPAGYGGSPGHTGSTSMSPSAALSTGKPMDSHPSYTDTPVSAPRTLSAVGTPLNALGSPYRVITSAMGPPSGALAAPPGINLVAPPSSQLNVVNSVSSSEDIKPLPGLPGIGNMNYPSTSPGSLVKHICAICGDRSSGKHYGVYSCEGCKGFFKRTIRKDLIYTCRDNKDCLIDKRQRNRCQYCRYQKCLVMGMKREAVQEERQRSRERAESEAECATSGHEDMPVERILEAELAVEPKTESYGDMNMENSTNDPVTNICHAADKQLFTLVEWAKRIPHFSDLTLEDQVILLRAGWNELLIASFSHRSVSVQDGILLATGLHVHRSSAHSAGVGSIFDRVLTELVSKMKDMQMDKSELGCLRAIVLFNPDAKGLSNPSEVETLREKVYATLEAYTKQKYPEQPGRFAKLLLRLPALRSIGLKCLEHLFFFKLIGDTPIDTFLMEMLETPLQIT
partner: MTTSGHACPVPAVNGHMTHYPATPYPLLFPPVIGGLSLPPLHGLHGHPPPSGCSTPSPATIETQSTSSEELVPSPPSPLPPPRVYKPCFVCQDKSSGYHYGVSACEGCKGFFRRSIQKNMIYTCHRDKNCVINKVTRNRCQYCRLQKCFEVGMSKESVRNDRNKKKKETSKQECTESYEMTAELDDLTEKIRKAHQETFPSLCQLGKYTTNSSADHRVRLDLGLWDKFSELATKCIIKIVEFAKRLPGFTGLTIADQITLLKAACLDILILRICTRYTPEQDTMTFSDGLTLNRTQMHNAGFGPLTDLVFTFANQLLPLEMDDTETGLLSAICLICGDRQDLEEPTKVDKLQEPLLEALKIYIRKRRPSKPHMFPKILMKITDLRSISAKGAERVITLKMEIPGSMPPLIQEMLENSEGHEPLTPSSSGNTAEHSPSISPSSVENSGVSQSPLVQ
B2: Protein Tob1 (Homo sapiens), P50616 (parent)
chain: MQLEIQVALNFIISYLYNKLPRRRVNIFGEELERLLKKKYEGHWYPEKPYKGSGFRCIHIGEKVDPVIEQASKESGLDIDDVRGNLPQDLSVWIDPFEVSYQIGEKGPVKVLYVDDNNENGCELDKEIKNSFNPEAQVFMPISDPASSVSSSPSPPFGHSAAVSPTFMPRSTQPLTFTTATFAATKFGSTKMKNSGRSNKVARTSPINLGLNVNDLLKQKAISSSMHSLYGLGLGSQQQPQQQQQPAQPPPPPPPPQQQQQQKTSALSPNAKEFIFPNMQGQGSSTNGMFPGDSPLNLSPLQYSNAFDVFAAYGGLNEKSFVDGLNFSLNNMQYSNQQFQPVMAN
B3: Serine/threonine-protein phosphatase 6 regulatory ankyrin repeat subunit B (Homo sapiens), Q8N8A2 (parent)
chain: MAVLKLTDQPPLVQAIFSGDPEEIRMLIHKTEDVNTLDSEKRTPLHVAAFLGDAEIIELLILSGARVNAKDNMWLTPLHRAVASRSEEAVQVLIKHSADVNARDKNWQTPLHVAAANKAVKCAEVIIPLLSSVNVSDRGGRTALHHAALNGHVEMVNLLLAKGANINAFDKKDRRALHWAAYMGHLDVVALLINHGAEVTCKDKKGYTPLHAAASNGQINVVKHLLNLGVEIDEINVYGNTALHIACYNGQDAVVNELIDYGANVNQPNNNGFTPLHFAAASTHGALCLELLVNNGADVNIQSKDGKSPLHMTAVHGRFTRSQTLIQNGGEIDCVDKDGNTPLHVAARYGHELLINTLITSGADTAKCGIHSMFPLHLAALNAHSDCCRKLLSSGFEIDTPDKFGRTCLHAAAAGGNVECIKLLQSSGADFHKKDKCGRTPLHYAAANCHFHCIETLVTTGANVNETDDWGRTALHYAAASDMDRNKTILGNAHDNSEELERARELKEKEATLCLEFLLQNDANPSIRDKEGYNSIHYAAAYGHRQCLELLLERTNSGFEESDSGATKSPLHLAAYNGHHQALEVLLQSLVDLDIRDEKGRTALDLAAFKGHTECVEALINQGASIFVKDNVTKRTPLHASVINGHTLCLRLLLEIADNPEAVDVKDAKGQTPLMLAVAYGHIDAVSLLLEKEANVDTVDILGCTALHRGIMTGHEECVQMLLEQEVSILCKDSRGRTPLHYAAARGHATWLSELLQMALSEEDCCFKDNQGYTPLHWACYNGNENCIEVLLEQKCFRKFIGNPFTPLHCAIINDHGNCASLLLGAIDSSIVSCRDDKGRTPLHAAAFADHVECLQLLLRHSAPVNAVDNSGKTALMMAAENGQAGAVDILVNSAQADLTVKDKDLNTPLHLACSKGHEKCALLILDKIQDESLINEKNNALQTPLHVAARNGLKVVVEELLAKGACVLAVDENASRSNGPRSTPGTAVQKEE
B4: Zinc finger protein Aiolos (Homo sapiens), Q9UKT9 (parent)
chain: MEDIQTNAELKSTQEQSVPAESAAVLNDYSLTKSHEMENVDSGEGPANEDEDIGDDSMKVKDEYSERDENVLKSEPMGNAEEPEIPYSYSREYNEYENIKLERHVVSFDSSRPTSGKMNCDVCGLSCISFNVLMVHKRSHTGERPFQCNQCGASFTQKGNLLRHIKLHTGEKPFKCHLCNYACQRRDALTGHLRTHSVEKPYKCEFCGRSYKQRSSLEEHKERCRTFLQSTDPGDTASAEARHIKAEMGSERALVLDRLASNVAKRKSSMPQKFIGEKRHCFDVNYNSSYMYEKESELIQTRMMDQAINNAISYLGAEALRPLVQTPPAPTSEMVPVISSMYPIALTRAEMSNGAPQELEKKSIHLPEKSVPSERGLSPNNSGHDSTDTDSNHEERQNHIYQQNHMVLSRARNGMPLLKEVPRSYELLKPPPICPRDSVKVINKEGEVMDVYRCDHCRVLFLDYVMFTIHMGCHGFRDPFECNMCGYRSHDRYEFSSHIARGEHRALLK
partner: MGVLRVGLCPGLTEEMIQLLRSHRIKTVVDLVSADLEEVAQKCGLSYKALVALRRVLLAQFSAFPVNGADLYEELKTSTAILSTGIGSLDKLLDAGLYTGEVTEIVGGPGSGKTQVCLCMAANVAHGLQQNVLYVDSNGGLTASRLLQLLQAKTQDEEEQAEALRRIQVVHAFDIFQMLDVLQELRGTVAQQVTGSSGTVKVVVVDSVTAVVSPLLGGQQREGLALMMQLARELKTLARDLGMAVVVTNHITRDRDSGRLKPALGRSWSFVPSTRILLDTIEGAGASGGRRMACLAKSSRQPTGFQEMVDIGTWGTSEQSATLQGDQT
B5: Zyxin (Homo sapiens), Q15942 (parent)
chain: MAAPRPSPAISVSVSAPAFYAPQKKFGPVVAPKPKVNPFRPGDSEPPPAPGAQRAQMGRVGEIPPPPPEDFPLPPPPLAGDGDDAEGALGGAFPPPPPPIEESFPPAPLEEEIFPSPPPPPEEEGGPEAPIPPPPQPREKVSSIDLEIDSLSSLLDDMTKNDPFKARVSSGYVPPPVATPFSSKSSTKPAAGGTAPLPPWKSPSSSQPLPQVPAPAQSQTQFHVQPQPQPKPQVQLHVQSQTQPVSLANTQPRGPPASSPAPAPKFSPVTPKFTPVASKFSPGAPGGSGSQPNQKLGHPEALSAGTGSPQPPSFTYAQQREKPRVQEKQHPVPPPAQNQNQVRSPGAPGPLTLKEVEELEQLTQQLMQDMEHPQRQNVAVNELCGRCHQPLARAQPAVRALGQLFHIACFTCHQCAQQLQGQQFYSLEGAPYCEGCYTDTLEKCNTCGEPITDRMLRATGKAYHPHCFTCVVCARPLEGTSFIVDQANRPHCVPDYHKQYAPRCSVCSEPIMPEPGRDETVRVVALDKNFHMKCYKCEDCGKPLSIEADDNGCFPLDGHVLCRKCHTARAQT
partner: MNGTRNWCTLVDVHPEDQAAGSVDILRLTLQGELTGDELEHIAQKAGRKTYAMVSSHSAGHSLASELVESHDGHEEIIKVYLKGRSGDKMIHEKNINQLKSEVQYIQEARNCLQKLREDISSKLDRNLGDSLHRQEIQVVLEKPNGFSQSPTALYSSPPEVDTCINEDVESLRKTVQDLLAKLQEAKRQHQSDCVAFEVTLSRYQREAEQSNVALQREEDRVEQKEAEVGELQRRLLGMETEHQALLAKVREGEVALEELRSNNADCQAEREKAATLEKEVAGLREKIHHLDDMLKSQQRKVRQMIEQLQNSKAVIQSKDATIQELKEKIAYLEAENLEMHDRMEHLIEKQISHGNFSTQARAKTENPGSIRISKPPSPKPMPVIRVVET
B6: Cytosolic 5'-nucleotidase 1A (Homo sapiens), Q9BXI3 (parent)
chain: MEPGQPREPQEPREPGPGAETAAAPVWEEAKIFYDNLAPKKKPKSPKPQNAVTIAVSSRALFRMDEEQQIYTEQGVEEYVRYQLEHENEPFSPGPAFPFVKALEAVNRRLRELYPDSEDVFDIVLMTNNHAQVGVRLINSINHYDLFIERFCMTGGNSPICYLKAYHTNLYLSADAEKVREAIDEGIAAATIFSPSRDVVVSQSQLRVAFDGDAVLFSDESERIVKAHGLDRFFEHEKAHENKPLAQGPLKGFLEALGRLQKKFYSKGLRLECPIRTYLVTARSAASSGARALKTLRSWGLETDEALFLAGAPKGPLLEKIRPHIFFDDQMFHVAGAQEMGTVAAHVPYGVAQTPRRTAPAKQAPSAQ
B7: Paraneoplastic antigen-like protein 5 (Homo sapiens), Q96PV4 (parent)
chain: MALTLLEDWCKGMDMDPRKALLIVGIPMECSEVEIQDTVKAGLQPLCAYRVLGRMFRREDNAKAVFIELADTVNYTTLPSHIPGKGGSWEVVVKPRNPDDEFLSRLNYFLKDEGRSMTDVARALGCCSLPAESLDAEVMPQVRSPPLEPPKESMWYRKLKVFSGTASPSPGEETFEDWLEQVTEIMPIWQVSEVEKRRRLLESLRGPALSIMRVLQANNDSITVEQCLDALKQIFGDKEDFRASQFRFLQTSPKIGEKVSTFLLRLEPLLQKAVHKSPLSVRSTDMIRLKHLLARVAMTPALRGKLELLDQRGCPPNFLELMKLIRDEEEWENTEAVMKNKEKPSGRGRGASGRQARAEASVSAPQATVQARSFSDSSPQTIQGGLPPLVKRRRLLGSESTRGEDHGQATYPKAENQTPGREGPQAAGEELGNEAGAGAMSHPKPWET

Variants of: B1
Details: with rarb_human RARB
With A86V the “effect of a mutation on the interaction” value was “with no effect”.

Variants of: B2
Details: with cnot7_human CNOT7, Q9UIV1
cnot7_human CNOT7, Q9UIV1, sequence (Q9UIV1 whole entry): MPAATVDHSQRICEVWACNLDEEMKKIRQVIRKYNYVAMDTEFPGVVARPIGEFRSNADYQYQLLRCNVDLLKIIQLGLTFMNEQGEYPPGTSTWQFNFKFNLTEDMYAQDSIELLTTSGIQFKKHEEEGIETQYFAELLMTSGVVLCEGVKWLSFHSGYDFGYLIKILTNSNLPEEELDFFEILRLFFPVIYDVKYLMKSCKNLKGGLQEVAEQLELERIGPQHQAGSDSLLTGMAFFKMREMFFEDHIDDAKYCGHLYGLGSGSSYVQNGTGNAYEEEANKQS
Y50N was tested, and the “effect of a mutation on the interaction” value was “with no effect”.

Variants of: B3
Details: with wwp2_human WWP2, O00308
wwp2_human WWP2, O00308, sequence (O00308 whole entry): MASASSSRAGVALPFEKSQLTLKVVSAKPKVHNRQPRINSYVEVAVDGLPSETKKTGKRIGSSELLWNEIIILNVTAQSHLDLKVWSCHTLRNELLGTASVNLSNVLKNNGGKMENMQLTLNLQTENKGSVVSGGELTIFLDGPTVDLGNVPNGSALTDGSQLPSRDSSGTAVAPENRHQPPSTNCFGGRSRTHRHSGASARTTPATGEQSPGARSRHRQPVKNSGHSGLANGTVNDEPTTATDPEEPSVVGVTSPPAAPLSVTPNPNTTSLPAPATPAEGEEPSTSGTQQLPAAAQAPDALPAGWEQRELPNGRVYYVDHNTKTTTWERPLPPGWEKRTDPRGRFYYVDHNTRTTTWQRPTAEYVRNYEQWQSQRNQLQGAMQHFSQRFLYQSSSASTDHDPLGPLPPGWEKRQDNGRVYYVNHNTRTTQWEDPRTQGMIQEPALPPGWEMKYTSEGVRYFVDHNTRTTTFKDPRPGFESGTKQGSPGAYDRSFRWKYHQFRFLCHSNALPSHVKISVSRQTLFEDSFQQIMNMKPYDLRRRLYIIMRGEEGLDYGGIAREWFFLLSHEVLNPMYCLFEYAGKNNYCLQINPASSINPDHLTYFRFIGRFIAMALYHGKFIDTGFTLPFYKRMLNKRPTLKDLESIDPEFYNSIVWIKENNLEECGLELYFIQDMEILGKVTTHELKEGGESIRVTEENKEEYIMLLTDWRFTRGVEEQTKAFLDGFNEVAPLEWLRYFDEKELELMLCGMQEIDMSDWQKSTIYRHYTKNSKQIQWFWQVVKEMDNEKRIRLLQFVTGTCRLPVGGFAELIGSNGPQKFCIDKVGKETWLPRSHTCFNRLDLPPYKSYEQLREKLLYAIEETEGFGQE
R80W was tested, and the “effect of a mutation on the interaction” value was “disrupting interaction strength”.

Variants of: B4
Details: with ra51d_human RAD51D
For N119D, the “effect of a mutation on the interaction” value was “with no effect”.
For A24V, the “effect of a mutation on the interaction” value was “with no effect”.

Variants of: B5
Details: with tuft1_human TUFT1, Q9NNX1
In the case of H223L, the “effect of a mutation on the interaction” value is reported as “with no effect”.
In the case of R563Q, the “effect of a mutation on the interaction” value is reported as “with no effect”.

Variants of: B6
Details: with ntaq1_human NTAQ1, Q96HA8
For Y34C, the “effect of a mutation on the interaction” value was “with no effect”.

Variants of: B7
Details: with arpc4_human ARPC4, P59998
For L21Q, the “effect of a mutation on the interaction” value was “disrupting interaction strength”.

Variants of: B7
Details: with zfy26_human ZFYVE26, Q68DK2
zfy26_human ZFYVE26, Q68DK2, sequence (Q68DK2 whole entry): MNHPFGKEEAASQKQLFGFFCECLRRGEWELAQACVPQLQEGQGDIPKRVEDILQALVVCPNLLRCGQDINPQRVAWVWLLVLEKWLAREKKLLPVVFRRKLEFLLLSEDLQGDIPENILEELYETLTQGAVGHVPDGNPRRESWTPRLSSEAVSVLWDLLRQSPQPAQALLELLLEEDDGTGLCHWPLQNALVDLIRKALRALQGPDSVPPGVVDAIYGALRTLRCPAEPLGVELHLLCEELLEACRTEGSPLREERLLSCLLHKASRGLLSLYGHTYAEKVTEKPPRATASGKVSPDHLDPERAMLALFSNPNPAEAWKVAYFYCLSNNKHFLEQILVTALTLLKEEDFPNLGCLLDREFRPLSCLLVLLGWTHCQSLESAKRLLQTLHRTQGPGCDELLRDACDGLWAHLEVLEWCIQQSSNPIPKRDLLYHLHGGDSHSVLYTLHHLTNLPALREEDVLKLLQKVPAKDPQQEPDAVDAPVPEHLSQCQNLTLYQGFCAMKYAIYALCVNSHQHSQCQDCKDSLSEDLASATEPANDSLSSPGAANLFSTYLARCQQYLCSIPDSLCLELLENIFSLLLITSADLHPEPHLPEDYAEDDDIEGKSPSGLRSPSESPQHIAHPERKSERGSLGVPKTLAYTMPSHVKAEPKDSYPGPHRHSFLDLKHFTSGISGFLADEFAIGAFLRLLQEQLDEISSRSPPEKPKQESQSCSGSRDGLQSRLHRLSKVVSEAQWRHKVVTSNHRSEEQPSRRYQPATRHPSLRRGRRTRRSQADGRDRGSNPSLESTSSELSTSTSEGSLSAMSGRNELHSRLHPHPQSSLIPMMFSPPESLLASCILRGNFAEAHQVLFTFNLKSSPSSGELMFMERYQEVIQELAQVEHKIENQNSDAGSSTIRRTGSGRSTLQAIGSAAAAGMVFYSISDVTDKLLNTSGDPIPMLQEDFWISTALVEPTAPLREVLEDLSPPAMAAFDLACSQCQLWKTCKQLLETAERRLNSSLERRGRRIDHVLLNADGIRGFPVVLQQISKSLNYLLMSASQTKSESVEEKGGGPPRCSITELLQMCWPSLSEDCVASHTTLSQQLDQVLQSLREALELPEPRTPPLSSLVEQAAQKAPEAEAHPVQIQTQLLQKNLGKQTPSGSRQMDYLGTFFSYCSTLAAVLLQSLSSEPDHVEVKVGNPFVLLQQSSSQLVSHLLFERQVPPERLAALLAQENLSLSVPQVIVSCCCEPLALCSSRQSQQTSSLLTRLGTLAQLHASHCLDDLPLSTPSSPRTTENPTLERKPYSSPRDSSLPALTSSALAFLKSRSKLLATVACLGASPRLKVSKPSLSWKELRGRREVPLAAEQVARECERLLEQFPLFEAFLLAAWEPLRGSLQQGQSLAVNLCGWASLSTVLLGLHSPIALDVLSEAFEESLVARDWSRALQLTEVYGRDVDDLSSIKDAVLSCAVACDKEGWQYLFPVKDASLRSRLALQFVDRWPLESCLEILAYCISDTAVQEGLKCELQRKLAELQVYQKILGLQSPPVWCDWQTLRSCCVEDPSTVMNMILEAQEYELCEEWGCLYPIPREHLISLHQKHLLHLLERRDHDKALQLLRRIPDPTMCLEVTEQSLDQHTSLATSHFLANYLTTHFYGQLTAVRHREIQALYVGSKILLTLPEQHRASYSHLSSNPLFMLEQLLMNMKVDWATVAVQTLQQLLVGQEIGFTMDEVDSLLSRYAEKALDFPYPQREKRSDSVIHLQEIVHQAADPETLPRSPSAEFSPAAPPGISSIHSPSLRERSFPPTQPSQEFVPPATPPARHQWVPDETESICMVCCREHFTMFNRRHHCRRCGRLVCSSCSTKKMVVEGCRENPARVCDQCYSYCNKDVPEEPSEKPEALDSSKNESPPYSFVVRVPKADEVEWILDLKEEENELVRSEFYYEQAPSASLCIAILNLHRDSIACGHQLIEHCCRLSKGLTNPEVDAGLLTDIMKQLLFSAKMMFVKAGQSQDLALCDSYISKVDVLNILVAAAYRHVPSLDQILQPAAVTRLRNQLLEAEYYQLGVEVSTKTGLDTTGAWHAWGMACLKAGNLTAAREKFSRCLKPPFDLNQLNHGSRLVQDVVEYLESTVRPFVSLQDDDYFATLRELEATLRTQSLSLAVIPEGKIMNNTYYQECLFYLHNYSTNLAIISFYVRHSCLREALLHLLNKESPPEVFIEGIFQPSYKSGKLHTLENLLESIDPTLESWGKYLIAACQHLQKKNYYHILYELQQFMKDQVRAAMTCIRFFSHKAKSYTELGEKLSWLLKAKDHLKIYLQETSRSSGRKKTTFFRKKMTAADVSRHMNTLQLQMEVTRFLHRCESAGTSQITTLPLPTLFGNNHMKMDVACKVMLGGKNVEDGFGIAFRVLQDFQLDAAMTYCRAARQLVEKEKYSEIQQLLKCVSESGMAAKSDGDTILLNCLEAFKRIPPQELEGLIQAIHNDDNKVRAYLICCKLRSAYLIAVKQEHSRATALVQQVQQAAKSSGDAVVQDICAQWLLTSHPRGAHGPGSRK
With L21Q the “effect of a mutation on the interaction” value was “disrupting interaction strength”.

Variants of: B7
Details: with ccnc_human CCNC
For L21Q, the “effect of a mutation on the interaction” value was “disrupting interaction strength”.

Variants of: B7
Details: with aapk1_human PRKAA1, Q13131
aapk1_human PRKAA1, Q13131, sequence (Q13131 whole entry, looked up): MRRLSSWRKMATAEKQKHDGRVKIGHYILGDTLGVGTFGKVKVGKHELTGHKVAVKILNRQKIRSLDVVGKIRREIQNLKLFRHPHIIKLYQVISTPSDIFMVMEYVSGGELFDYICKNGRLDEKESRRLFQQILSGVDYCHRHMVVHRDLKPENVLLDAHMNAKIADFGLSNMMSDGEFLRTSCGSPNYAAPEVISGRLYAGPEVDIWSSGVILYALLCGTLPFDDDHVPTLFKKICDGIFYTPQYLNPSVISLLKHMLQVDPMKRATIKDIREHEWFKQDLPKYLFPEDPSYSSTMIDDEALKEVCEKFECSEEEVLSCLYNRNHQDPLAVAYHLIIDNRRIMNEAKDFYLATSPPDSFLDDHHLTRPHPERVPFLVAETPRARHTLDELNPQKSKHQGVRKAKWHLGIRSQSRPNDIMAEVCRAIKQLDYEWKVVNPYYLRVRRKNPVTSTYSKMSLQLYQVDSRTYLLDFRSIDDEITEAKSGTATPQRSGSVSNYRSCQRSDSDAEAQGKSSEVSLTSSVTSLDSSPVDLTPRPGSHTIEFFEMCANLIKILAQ
L21Q was tested, and the “effect of a mutation on the interaction” value was “disrupting interaction strength”.

From IntAct's records for PubMed 31515488
